The values that follow come from patent US20130330359A1.

For assay [1], the target named is carrier free RGMc (R&D Systems) (human) (UniProt Q6ZVN8). Put plainly: direct EIA: carrier-free RGMc coated at 0.5 ug/mL; sample at 2 ug/ml; goat anti-mouse IgG-HRPO.
Assay [2] has as its target carrier free RGMa (R&D Systems) (UniProt Q96B86). Put plainly: direct EIA: carrier-free RGMa coated at 0.5 ug/mL; sample at 2 ug/ml; goat anti-mouse IgG-HRPO.
Assay [3] has as its target carrier free RGMb (R&D Systems) (UniProt Q6NW40). The assay is described as follows: direct EIA: carrier-free RGMb coated at 0.5 ug/mL; sample at 2 ug/ml; goat anti-mouse IgG-HRPO.

carrier free RGMa (R&D Systems), sequence (Q96B86 48-422 limits assumed): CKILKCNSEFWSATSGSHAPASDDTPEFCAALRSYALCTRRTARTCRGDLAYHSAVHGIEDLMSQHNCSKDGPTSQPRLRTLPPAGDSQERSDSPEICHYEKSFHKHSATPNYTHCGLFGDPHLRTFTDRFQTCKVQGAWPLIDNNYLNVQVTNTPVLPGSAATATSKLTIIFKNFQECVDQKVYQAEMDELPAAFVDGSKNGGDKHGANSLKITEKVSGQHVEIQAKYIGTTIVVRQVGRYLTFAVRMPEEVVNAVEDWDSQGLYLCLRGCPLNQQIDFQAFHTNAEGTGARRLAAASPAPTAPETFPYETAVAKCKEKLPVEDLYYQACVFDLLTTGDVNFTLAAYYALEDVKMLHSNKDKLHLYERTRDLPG
carrier free RGMb (R&D Systems), sequence (Q6NW40 46-413 limits assumed): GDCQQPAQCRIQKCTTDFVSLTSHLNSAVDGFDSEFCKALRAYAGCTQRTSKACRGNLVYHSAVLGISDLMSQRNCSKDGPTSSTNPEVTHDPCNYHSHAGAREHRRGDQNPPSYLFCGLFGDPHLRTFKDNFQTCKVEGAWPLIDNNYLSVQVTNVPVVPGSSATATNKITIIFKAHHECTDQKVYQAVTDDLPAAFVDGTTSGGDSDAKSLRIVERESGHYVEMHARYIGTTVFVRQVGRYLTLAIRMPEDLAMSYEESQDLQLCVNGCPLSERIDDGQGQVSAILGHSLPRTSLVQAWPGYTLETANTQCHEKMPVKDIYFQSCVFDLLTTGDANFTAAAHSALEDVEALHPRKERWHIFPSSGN
carrier free RGMc (R&D Systems) (human), sequence (Q6ZVN8 36-400 limits assumed): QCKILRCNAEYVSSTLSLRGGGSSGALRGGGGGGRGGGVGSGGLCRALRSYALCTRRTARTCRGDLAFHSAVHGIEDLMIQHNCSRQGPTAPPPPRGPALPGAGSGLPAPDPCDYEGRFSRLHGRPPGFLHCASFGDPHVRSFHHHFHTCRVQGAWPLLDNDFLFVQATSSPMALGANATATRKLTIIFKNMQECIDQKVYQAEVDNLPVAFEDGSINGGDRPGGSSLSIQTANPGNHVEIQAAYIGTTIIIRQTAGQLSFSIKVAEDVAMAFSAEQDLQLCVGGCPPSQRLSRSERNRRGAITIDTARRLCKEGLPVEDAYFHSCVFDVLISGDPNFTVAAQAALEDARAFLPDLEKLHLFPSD

In the case of “negative control: purified mouse mAb from an irrelevant / different antigen system (antibody)”, the absorbance at 492 nm in assay [1] is 0.14; in assay [2] it was 0.1; in assay [3], 0.09.
